In the Human Domainome abundance scans (Beltran et al. 2025):
± gives the uncertainty stated by the source.

B1: CD2-associated protein, residues 109 to 169; numbered along this chain, Q9Y5K6 (parent)
chain: KKRQCKVLFEYIPQNEDELELKVGDIIDINEEVEEGWWSGTLNNKLGLFPSNFVKELEVTD

Variants of: B1
Experiment: abundance fitness (aPCA) (normalised: wild type 0, dead -1); higher = more abundant; growth selection in yeast, the domain comes from the species named
Settings: Homo sapiens

Compared with E34T, E34W is lower in abundance fitness: 0.008 ± 0.11 for the first, -0.347 ± 0.15 for the second.

E34Y and E34N are within error of each other in abundance fitness: -0.126 ± 0.22 for the first, -0.337 ± 0.44 for the second.

First: E34A
Second: E34L
The abundance fitness of the first is higher: -0.167 ± 0.15 for the first, -0.611 ± 0.28 for the second.

First: E34H
Second: E34I
The abundance fitness of the first is higher: 0.179 ± 0.14 for the first, -0.247 ± 0.21 for the second.

First: E34K
Second: E34D
The abundance fitness of the first is higher: 0.299 ± 0.3 for the first, -0.3 ± 0.15 for the second.

E34S and E34Q are within error of each other in abundance fitness: 0.016 ± 0.11 for the first, -0.147 ± 0.23 for the second.

E34F and E34V are within error of each other in abundance fitness: -0.393 ± 0.3 for the first, -0.05 ± 0.13 for the second.

E34M and E34G are within error of each other in abundance fitness: -0.045 ± 0.19 for the first, -0.067 ± 0.16 for the second.

Going from W37R to W37S, the abundance fitness falls from -0.375 ± 0.14 to -0.77 ± 0.24.

W37T and W37V are within error of each other in abundance fitness: -0.366 ± 0.28 for the first, -0.255 ± 0.13 for the second.

Compared with W37A, W37F is higher in abundance fitness: -0.855 ± 0.32 for the first, -0.201 ± 0.18 for the second.

W37H and W37G are within error of each other in abundance fitness: -0.656 ± 0.31 for the first, -0.74 ± 0.43 for the second.

W37P and W37K are within error of each other in abundance fitness: -0.541 ± 0.2 for the first, -0.681 ± 0.48 for the second.

W37I and W37Y are within error of each other in abundance fitness: -0.524 ± 0.24 for the first, -0.448 ± 0.48 for the second.

W37M and W37D are within error of each other in abundance fitness: -0.267 ± 0.12 for the first, -0.387 ± 0.4 for the second.

W37L and W37E are within error of each other in abundance fitness: -0.344 ± 0.12 for the first, 0 ± 0.24 for the second.

G40T and G40Q are within error of each other in abundance fitness: -1.02 ± 0.5 for the first, -1.03 ± 0.43 for the second.

G40A and G40C are within error of each other in abundance fitness: -0.747 ± 0.47 for the first, -0.664 ± 0.14 for the second.

G40L and G40S are within error of each other in abundance fitness: -1.17 ± 0.29 for the first, -0.92 ± 0.24 for the second.

G40F and G40V are within error of each other in abundance fitness: -0.477 ± 0.16 for the first, -0.306 ± 0.14 for the second.

G40W and L42E are within error of each other in abundance fitness: -0.668 ± 0.16 for the first, -0.922 ± 0.34 for the second.

L42C and L42G are within error of each other in abundance fitness: -0.174 ± 0.16 for the first, -0.451 ± 0.12 for the second.

L42N and L42H are within error of each other in abundance fitness: 0.12 ± 0.15 for the first, -0.252 ± 0.32 for the second.

L42P and L42K are within error of each other in abundance fitness: -0.732 ± 0.41 for the first, -0.317 ± 0.12 for the second.

L42T and L42S are within error of each other in abundance fitness: -0.131 ± 0.13 for the first, 0.042 ± 0.1 for the second.

L42I and L42D are within error of each other in abundance fitness: -0.242 ± 0.23 for the first, -0.241 ± 0.3 for the second.

L42F and L42M are within error of each other in abundance fitness: -0.616 ± 0.23 for the first, -0.486 ± 0.23 for the second.

L42R and L42A are within error of each other in abundance fitness: -0.388 ± 0.084 for the first, -0.391 ± 0.12 for the second.

L42Q and E35Q are within error of each other in abundance fitness: -0.432 ± 0.4 for the first, -0.153 ± 0.19 for the second.

E35M and E35R are within error of each other in abundance fitness: -0.169 ± 0.25 for the first, -0.15 ± 0.12 for the second.

E35P and E35N are within error of each other in abundance fitness: -0.139 ± 0.22 for the first, -0.12 ± 0.26 for the second.

Compared with E35S, E35H is lower in abundance fitness: 0.213 ± 0.13 for the first, -0.318 ± 0.35 for the second.

E35A and E35T are within error of each other in abundance fitness: -0.226 ± 0.2 for the first, -0.185 ± 0.15 for the second.

E35V and E35C are within error of each other in abundance fitness: -0.15 ± 0.098 for the first, 0.015 ± 0.15 for the second.

E35Y and E35D are within error of each other in abundance fitness: -0.395 ± 0.3 for the first, -0.146 ± 0.33 for the second.

E35L and E35K are within error of each other in abundance fitness: -0.452 ± 0.13 for the first, -0.352 ± 0.17 for the second.

Compared with G36W, G36M is higher in abundance fitness: -0.59 ± 0.21 for the first, -0.201 ± 0.12 for the second.

G36C and G36Q are within error of each other in abundance fitness: -0.467 ± 0.089 for the first, -0.457 ± 0.26 for the second.

G36H and G36Y are within error of each other in abundance fitness: -0.375 ± 0.09 for the first, -0.276 ± 0.076 for the second.

G36R and G36D are within error of each other in abundance fitness: -0.323 ± 0.09 for the first, -0.178 ± 0.079 for the second.

G36I and G36P are within error of each other in abundance fitness: -0.605 ± 0.11 for the first, -0.939 ± 0.25 for the second.

First: G36V
Second: G36K
The abundance fitness of the first is lower: -0.651 ± 0.12 for the first, -0.278 ± 0.21 for the second.

Going from G36E to G36A, the abundance fitness falls from 0.041 ± 0.23 to -0.357 ± 0.087.

First: G36N
Second: S39N
The abundance fitness of the first is higher: -0.004 ± 0.085 for the first, -0.25 ± 0.11 for the second.

S39T and S39E are within error of each other in abundance fitness: -0.06 ± 0.084 for the first, -0.097 ± 0.15 for the second.

First: S39W
Second: S39G
The abundance fitness of the first is higher: -0.03 ± 0.12 for the first, -0.459 ± 0.11 for the second.

First: S39K
Second: S39P
The abundance fitness of the first is higher: 0.166 ± 0.091 for the first, -1.1 ± 0.33 for the second.

Going from S39M to S39L, the abundance fitness rises from -0.126 ± 0.093 to 0.057 ± 0.061.

Compared with S39V, S39D is lower in abundance fitness: 0.094 ± 0.074 for the first, -0.696 ± 0.28 for the second.

First: S39A
Second: S39H
The abundance fitness of the first is lower: -0.349 ± 0.11 for the first, -0.085 ± 0.15 for the second.

S39Y and S39Q are within error of each other in abundance fitness: -0.257 ± 0.12 for the first, -0.217 ± 0.097 for the second.

W38C and W38S are within error of each other in abundance fitness: -0.385 ± 0.18 for the first, -0.49 ± 0.092 for the second.

First: W38F
Second: W38Q
The abundance fitness of the first is higher: -0.263 ± 0.12 for the first, -0.55 ± 0.15 for the second.

W38H and W38R are within error of each other in abundance fitness: -0.679 ± 0.29 for the first, -0.586 ± 0.11 for the second.

W38G and W38T are within error of each other in abundance fitness: -0.569 ± 0.16 for the first, -0.618 ± 0.15 for the second.

Going from W38Y to W38V, the abundance fitness falls from 0.109 ± 0.13 to -0.46 ± 0.098.

W38N and W38K are within error of each other in abundance fitness: -0.605 ± 0.26 for the first, -0.669 ± 0.2 for the second.

Compared with W38I, W38D is lower in abundance fitness: -0.057 ± 0.15 for the first, -0.587 ± 0.33 for the second.

Compared with W38A, W38M is higher in abundance fitness: -0.752 ± 0.22 for the first, -0.223 ± 0.11 for the second.

Compared with W38P, V33M is higher in abundance fitness: -0.787 ± 0.31 for the first, 0.085 ± 0.27 for the second.

V33H and V33T are within error of each other in abundance fitness: -0.404 ± 0.34 for the first, -0.452 ± 0.24 for the second.

V33I and V33F are within error of each other in abundance fitness: 0.129 ± 0.23 for the first, -0.242 ± 0.23 for the second.

V33Y and V33A are within error of each other in abundance fitness: -0.349 ± 0.4 for the first, -0.132 ± 0.23 for the second.

V33Q and V33K are within error of each other in abundance fitness: -0.55 ± 0.29 for the first, -0.262 ± 0.15 for the second.

V33G and V33R are within error of each other in abundance fitness: -0.483 ± 0.43 for the first, 0.108 ± 0.17 for the second.

V33E and V33S are within error of each other in abundance fitness: -0.192 ± 0.2 for the first, -0.186 ± 0.16 for the second.

T41E and T41K are within error of each other in abundance fitness: -0.05 ± 0.17 for the first, -0.229 ± 0.3 for the second.

T41L and T41M are within error of each other in abundance fitness: -0.318 ± 0.095 for the first, -0.162 ± 0.12 for the second.

Compared with T41R, T41V is higher in abundance fitness: -0.171 ± 0.12 for the first, 0.078 ± 0.09 for the second.

First: T41Q
Second: T41G
The abundance fitness of the first is higher: -0.062 ± 0.13 for the first, -0.517 ± 0.15 for the second.

T41I and T41S are within error of each other in abundance fitness: -0.246 ± 0.19 for the first, -0.35 ± 0.15 for the second.

T41N and T41Y are within error of each other in abundance fitness: -0.011 ± 0.45 for the first, -0.065 ± 0.16 for the second.

T41W and T41F are within error of each other in abundance fitness: 0.016 ± 0.17 for the first, -0.274 ± 0.2 for the second.

T41A and T41H are within error of each other in abundance fitness: -0.182 ± 0.1 for the first, -0.158 ± 0.25 for the second.

E32T and E32W are within error of each other in abundance fitness: -0.094 ± 0.18 for the first, -0.374 ± 0.31 for the second.

E32K and E32I are within error of each other in abundance fitness: -0.188 ± 0.2 for the first, -0.28 ± 0.41 for the second.

E32G and E32V are within error of each other in abundance fitness: -0.188 ± 0.17 for the first, -0.155 ± 0.3 for the second.

E32S and E32R are within error of each other in abundance fitness: -0.091 ± 0.16 for the first, -0.407 ± 0.25 for the second.

Compared with E32A, E32M is higher in abundance fitness: -0.38 ± 0.24 for the first, 0.178 ± 0.19 for the second.

E32C and E32L are within error of each other in abundance fitness: -0.274 ± 0.3 for the first, -0.689 ± 0.42 for the second.

Going from E31S to E31W, the abundance fitness falls from -0.33 ± 0.13 to -0.755 ± 0.2.

E31Y and E31R are within error of each other in abundance fitness: -0.122 ± 0.25 for the first, 0.039 ± 0.099 for the second.

E31T and E31Q are within error of each other in abundance fitness: -0.087 ± 0.12 for the first, -0.23 ± 0.15 for the second.

Work on E31V yielded an abundance fitness of -0.354 ± 0.1.
